How the values were obtained:
[1] = target: T1, COH2-DBD (Metarhizium robertsii, UniProt E9F6D9 1-100); assay: EMSA; LightShift Chemiluminescent EMSA Kit; competitor up to 300-fold excess; buffer, salt, pH and temperature not stated; settings: protein: recombinant; tags: His (pET28a); chain copies: 2; label: biotin on one strand (Bio-probe); unlabeled as Cold-probe
[2] = target: T1, COH2-DBD; assay: competition; unlabeled mutant, 300-fold excess; almost completely abolished shift; LightShift Chemiluminescent EMSA Kit; competitor up to 300-fold excess; buffer, salt, pH and temperature not stated; settings: protein: recombinant; tags: His (pET28a); chain copies: 2

B1: COH2-BM wild-type probe (dsDNA)
DNA 1: TTCATCTGCCGAAATGTGGACGCTGACTCGGTATGCATTGCACCATCTC
DNA 2: GAGATGGTGCAATGCATACCGAGTCAGCGTCCACATTTCGGCAGATGAA
B1: binds [1].

B2: 7A (dsDNA)
DNA 1: TTCATCTGCCGAAATGTGGACGCTGACTCAGTATGCATTGCACCATCTC
DNA 2: GAGATGGTGCAATGCATACTGAGTCAGCGTCCACATTTCGGCAGATGAA
B2: binds [2].

— paper PMC8366996, “A novel cascade allows Metarhizium robertsii to distinguish cuticle and hemocoel microenvironments during infection of insects”
